Test results reported in article PMC6783313.

Molecular target: ClpP1(S98A) from Listeria monocytogenes (Listeria monocytogenes)
Assay: cryo-EM structure

**Q.** “ClpP1(S98A) from Listeria monocytogenes (natural protein)” was tested. Which stoichiometry N did it give?
**A.** 7
